{"source": "patent US20060252692A1", "about": "“Inhibitors for use in hemostasis” (ZymoGenetics, Inc., priority 2002, published 2006)", "molecules": {"B1": {"name": "zsig37: adipocyte complement related protein homolog, polypeptide of SEQ ID NO:2, inhibits collagen-mediated platelet activation and the complement pathway (protein, listed as Homo sapiens)", "chain": "MGSRGQGLLLAYCLLLAFASGLVLSRVPHVQGEQQEWEGTEELPSPPDHAERAEEQHEKYRPSQDQGLPASRCLRCCDPGTSMYPATAVPQINITILKGEKGDRGDRGLQGKYGKTGSAGARGHTGPKGQKGSMGAPGERCKSHYAAFSVGRKKPMHSNHYYQTVIFDTEFVNLYDHFNMFTGKFYCYVPGLYFFSLNVHTWNQKETYLHIMKNEEEVVILFAQVGDRSIMQSQSLMLELREQDQVWVRLYKGERENAIFSEELDTYITFSGYLVKHATEP"}}, "key": {"[1]": {"system": "platelets in whole blood", "experiment": "Whole blood platelet activation (Lumi-Aggregometer)", "assay_type": "cell-based, human", "description": "Blood was drawn from healthy volunteers into tubes containing sodium citrate, maintained at room temperature, and used within four hours of drawing. Whole blood was analyzed for platelet activation using a Chrono-Log 560A Whole Blood Lumi-Aggregometer (Chrono-Log Corp.; Haverton, Pa.) according to manufacturer's instructions. For each test point, 500 μl of blood were added to a reaction tube containing a stir bar and 500 μl of isotonic saline containing zsig37 at concentrations from 0 to 20 μg/ml. The mixture was incubated for four minutes followed by platelet activation initiated by the addition of 5 μl of 1 mg/ml cross-linked collagen (Chrono-Log Corp.) to the blood/zsig37 mixture. Inhibition of activation by ADP (final concentration 10 μM), and thrombin (final concentration lU/ml) were tested in a similar way."}, "[2]": {"system": "platelets activated by CRP (platelet GPVI)", "experiment": "Inhibition of CRP activation of platelets by zsig37", "assay_type": "cell-based, human", "conditions": "plate coated with 5 μg/ml CRP; zsig37 0-200 μg/ml", "description": "The lysine containing CRP (Ac-GKO-(GPO)10-GKOGV) (SEQ ID NO:15) was synthesized and cross-linked essentially as described by described by Morton (Morton et al., Biochem. J., 306(2):337-344 (Mar. 1, 1995)). The potency of the cross-linked CRP was determined using a using a modified microplate platelet aggregation method as described previously (Bednar B., et al., Thrombosis Research, 77(5):453-463 (1995)). Platelet rich plasma (PRP) was prepared by centrifugation (150 g, 30 min.) from citrated blood obtained from healthy volunteers. Modified Hepes Tyrodes buffer (10 mM Hepes, 137 mM NaCl, 2.7 mM KCL, 0.4 mM NaH2PO4, 1.2mM NaHCO3, 0.1% dextrose and 0.2% BSA fraction V) was used to adjust the platelet concentration to 2.6×10^8/mL. To determine potency, triplicate wells of 0-20 μg/ml of CRP was mixed with platelets in a 96-well flat bottom plate. As a control, collagen-I norm was assayed in triplicate at a final concentration of 1.25 μg/mL. The plate was agitated on a microplate reader and turbidity was monitored as percent light transmitted at 632 nm. The EC50 for the CRP was determined from 3 assays to be 0.1-0.2 μg/ml. […] The plate was washed three times with 5% BSA/PBS and triplicate wells of 0-200 μg/ml of zsig37 was incubated for 1 hour at room temperature. Platelets were then added and assayed as described."}, "[3]": {"system": "classical pathway of human Complement serum", "experiment": "Complement hemolysis assay, classical pathway (sheep erythrocytes)", "assay_type": "biochemical", "description": "Complement assays were performed in 96 well round bottom plates. Gelatin Veronal buffer containing magnesium and calcium (141 mM NaCl, 1.8 mM sodium barbitol, 3.1 mM barbituric acid, 0.1% bovine gelatin, 0.5 mM MgCl2 and 0.15 mM CaCl2) was used for all serum and inhibitor dilutions as well as erythrocyte suspensions. Fifty microliters of standardized human Complement serum (Sigma Chemical Co.), diluted 1/37.5 (for a final dilution of 1/150) was added to each well. The inhibitor was added in triplicate, 50 μl/well. The serum and inhibitor were incubated for thirty minutes at room temperature. The assay was initiated by the addition of 100 μl of 2×10^8/ml unsensitized sheep erythrocytes (Colorado Serum Co.; Denver, Colo.), sensitized sheep erythrocytes, sensitized using the Hemolysin manufacturer's protocol (BioWhittaker Inc.; Walkersville, Md.) and rabbit erythrocytes containing 16 mM EGTA, and 4 mM Mg^++. A human serum dilution series from 1/50 to 1/400 was also plated as an activity control. Erythrocytes, lysed with distilled water and diluted to 100, 75, 50, 25, and 12.5 percent lysis, were used to quantify complement percent lysis. The plate was sealed and incubated at 37° C. for one hour with mixing every 15 minutes. […] The plate was read at 415 nm and percent lysis was calculated."}, "[4]": {"system": "template bleeding time", "parameters": "species or system Macaca fascicularis", "conditions": "cynomolgus monkey, in vivo", "source_text": "In order to evaluate one aspect of the safety of zsig37 and its effect on template bleeding time, a pre-clinical model in Macaca fascicularis was used. Time to cessation of bleeding from standardized incisions on the animal's forearm, a procedure previously described by Wu, et al., Blood, 2002, 99:3623-3628, was employed to assess the effect of zsig37 on bleeding.\nMethods. Five female and twelve male, Macaca fascicularis weighing 2.3 to 4.6 kg were used as test subjects on this project. The animals were immobilized with ketamine hydrochloride (Phoenix Scientific) administered intramuscularly at approximately 10 mg/kg. Each animal was examined, and the animal determined to be acceptable for the study. The right forearm, abdomen, ventral neck and inguinal area were shaved free of hair. The animal was transported to the surgical suite (University of Washington Regional Primate Research Center), positioned inside a heated air circulation system and placed onto isoflurane (Abbott Laboratories) inhalation anesthesia delivered through positive pressure ventilation via an endotracheal tube. […] The time to cessation of bleeding was determined and recorded for each animal. Bleeding times were determined for each animal prior to any treatment, after low molecular weight heparin (Lovenox™, Rhone Polenc, Inc.) treatment and after zsig37 treatment."}}, "data": [{"molecule": "B1", "values": [{"measurement": "effect on platelet activation stimulated by ADP", "setting": "[1]; ADP final concentration 10 μM", "value": "no effect"}, {"measurement": "inhibition of collagen-mediated platelet activation", "setting": "[1]; cross-linked collagen, zsig37 0 to 20 μg/ml", "value": "dose dependent relationship between 5 and 20 μg/ml"}, {"measurement": "effect on platelet activation stimulated by thrombin", "setting": "[1]; thrombin", "value": "no effect"}, {"measurement": "inhibition of CRP activation of platelets", "setting": "[2]", "value": "results from 3 of 6 assays demonstrated inhibition of CRP"}, {"measurement": "inhibition of classical pathway lysis", "setting": "[3]; sensitized sheep erythrocytes", "value": "effective in inhibiting the classical pathway"}, {"measurement": "inhibition of classical pathway lysis", "setting": "[3]; unsensitized sheep erythrocytes", "value": "effective in inhibiting the classical pathway"}, {"measurement": "template bleeding time vs control (1.0 mg/kg BSA)", "setting": "[4]", "value": "not statistically different"}]}]}
